Data reported in the nanobody polyreactivity screen of Harvey et al. (2022).

Experiment: yeast display, Sf9 membrane polyspecificity reagent, FACS + sequencing; frameworks hold sequencing errors
How it was run: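 Polyreactivity labels are assigned by the sorting gate from which each nanobody was recovered. The gates were low and high (top ~1%), set on anti-HA fluorescence for expression and streptavidin fluorescence for reagent binding. Before sorting, galactose-induced (36–48 hours) yeast display cells were stained for 1 hour at 4 °C with 10% biotinylated, detergent-solubilized Sf9 membrane reagent.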

## QVQLVESGGGLVQAGGSLRLSCAASGFTLYSYAMGWYRQAPGKERELVAAITRSGGITYYADSVKGRFTISRDNAKNTVYLQMNSLKPEDTAVYYCNAYRGGLSSEHYYWGQGTQVTVSS
  polyreactivity (PSR sort gate): high polyreactivity

## QVQLVESGGGLVQAGGSLRLSCAASGFTLYSYVMGWYRQAPGKERELVAAISRSGVSTHYADSVKGRFTISRDNAKNTVYLQMNSLKPEDTAVYYCNKVYYYVGTLDYWGQGTQVTVSS
  polyreactivity (PSR sort gate): high polyreactivity

## QVQLVESGGGLVQAGGSLRLSCAASGFTNAYYAMGWYRQAPGKEREFVASITSGGSTYYADSVKGRFTISRDNAKNTVYLQMNSLKPEDTAVYYCAARSPFYSYTPGYEYWGQGTQVTVSS
  polyreactivity (PSR sort gate): high polyreactivity

## QVQLVESGGGLVQAGGSLRLSCAASGFTRIYAMGWYRQAPGKEREMVAAISQRGGRTYYADSVKGRFTISRDNAKNTVSLQKNSLKQEDTAVYYCNSDLRSYNYPEYEYDYWGQGTQVTVSS
  polyreactivity (PSR sort gate): high polyreactivity

## QVQLVESGGGLVQAGGSLRLSCAASGFTSAPYAMGWYRQAPGKERELVAAISSGDTTSYADSVKGRFTISRDNAKNTVYLQMNSLKPEDTAVYYCAAVYFNVIESYKTAGYDYWGQGTQVTVSS
  polyreactivity (PSR sort gate): low polyreactivity

## QVQLVESGGGLVQAGGSLRLSCAASGFTSAPYAMGWYRQAPGKERELVAAITRTGGSTYYADSVKGRFTISRDNAKNTVYLQMNSLKPEDTAVYYCAVRLSGYQYHFRYGYWGQGTQVTVSS
  polyreactivity (PSR sort gate): high polyreactivity

## QVQLVESGGGLVQAGGSLRLSCAASGFTSFANAMGWYRQAPGKERELVASITNSGGSTHYADSVKGRFTISRDNAKNTVYLQMNSLKPEDTAVYYCAADYWIVYRIYGSKYLGKWYDYWGQGTQVTVSS
  polyreactivity (PSR sort gate): low polyreactivity

## QVQLVESGGGLVQAGGSLRLSCAASGFTSRRYAMGWYRQAPGKERELVAAISWSGGSTYYADSVKGRFTISRDNAKNTVYLQMNSLKPEDTAVYYCAAKRYSSKRGLDYWGQGTQVTVSS
  polyreactivity (PSR sort gate): high polyreactivity

## QVQLVESGGGLVQAGGSLRLSCAASGFTSSRNAMGWYLQAPGKEREWVATISSGGDTYYADSVKGRFTISRDNAKNTVYLQMNSLKPVDTAVYYCNKDPLYDWGYDYWGHGTQVTVSS
  polyreactivity (PSR sort gate): low polyreactivity

## QVQLVESGGGLVQAGGSLRLSCAASGFTSVDNAMGWYRQAPGNERELVAAIDTSGARTYYADSVKGRFTISRDNAKHTVYLQMNSLKPEDTAVYYCATEYVYDDRLYSTYYYWGQGTQVTVSS
  polyreactivity (PSR sort gate): high polyreactivity

## QVQLVESGGGLVQAGGSLRLSCAASGFTSYDNAMGWYRPAPGKERELVAASTWDGGSTYYADSVKGRFTISRDNAKNTVDLQMNSLKPEDTAVYDCAADLADFYPRYNYWGQGTQVTVSS
  polyreactivity (PSR sort gate): low polyreactivity

## QVQLVESGGGLVQAGGSLRLSCAASGFTTNYYARGWYRQAPGKERELVAAITTGGSTHYADSVKGRFTISRDNAKNTVYLQMNSLKPEDTAVYYCAAGTNRQQQRYFHHGGYYQYNYWGQGTQVTVSS
  polyreactivity (PSR sort gate): low polyreactivity

## QVQLVESGGGLVQAGGSLRLSCAASGFTYKYYAMGWYRQAPGKERELVAAIRRSAGSTNYADSVKGRFTISRDNAKNTVYLQMNSLKPEDTAVYYCNTVGTRQPMDYWGQGTQVTVSS
  polyreactivity (PSR sort gate): high polyreactivity

## QVQLVESGGGLVQAGGSLRLSCAASGFTYKYYVMGWYRQAPGKERELVASISKRGGSTRYADSVKGRFTISRDYAKNTVYLQMNSLKPEDNAVYYCAAAFVRRPPYVGYSRFDYWGQGTQVTVSS
  polyreactivity (PSR sort gate): high polyreactivity

## QVQLVESGGGLVQAGGSLRLSCAASGFTYRWYAMGWYRQAPGKETELVAAISWDGGSTYYADSVKGRFTISRDNAKNTVYLQMNSLKPEDTAVYFCATVKSLRYWWQNEYGYWGQGTQVTVSS
  polyreactivity (PSR sort gate): high polyreactivity

## QVQLVESGGGLVQAGGSLRLSCAASGFTYRYYAMGWYRQSPGKERELVAAISSGGNTRYADSVKGRFTISRDNAKNTVYLQMTSLKPEDTAVYYCARRPGDWKYVYTGDYWGQGTQVTVSS
  polyreactivity (PSR sort gate): high polyreactivity

## QVQLVESGGGLVQAGGSLRLSCAASGFTYYHNAMGWYRQAPGKERELVAAISSSGDSTYYADSVKGRFTISRDNAKNTVYLQMKSLKPEDTAVYYCNDYFYYLSLYYYYWFNYDYWGQGTQVTVSS
  polyreactivity (PSR sort gate): low polyreactivity

## QVQLVESGGGLVQAGGSLRLSCAASGGIFAPNAMGWYRQAPGKEREFVAAISTGGGSTRYADSVKGRFTISRDNAKNTVYLQMNSLKPEDTAVYYCAAELWYTWLGSPYDYWGQGTQVTVSS
  polyreactivity (PSR sort gate): low polyreactivity

## QVQLVESGGGLVQAGGSLRLSCAASGGIFAYNVMGWYRQAPGKERELVAAISSAGSTYYADSVKGRFTISRDNAKNTVYLQMNSLKPEDTAVYYCAVRIGLKYDYWGQGTQVTVSS
  polyreactivity (PSR sort gate): low polyreactivity

## QVQLVESGGGLVQAGGSLRLSCAASGGIFDGNAMGWYRQAPGKERELVAAISSGGITKYADSVKGRFTISRDNAKNTVYLQKNSLKPEDTAVYYCAASWYRYRFIRYDYWGQGTQVTVSS
  polyreactivity (PSR sort gate): high polyreactivity

## QVQLVESGGGLVQAGGSLRLSCAASGGIFDGYAMGWYRQAPGKERELVAAINYSVDRTYYADSVKGRFTISRDNAKNTVYLQMNSLKPVDTAVYYCATVPRYVRFGYGYWGQGTQVTVSS
  polyreactivity (PSR sort gate): high polyreactivity

## QVQLVESGGGLVQAGGSLRLSCAASGGIFDSYAMGWYRQAPGKERELVAAISRSGSTNYADSVKGRFTISRDNAKNTVYLQMYSLKPEDTAVYYCAASVRGIRYDYWGQGTQVTVSS
  polyreactivity (PSR sort gate): low polyreactivity

## QVQLVESGGGLVQAGGSLRLSCAASGGIFDSYAMGWYRQAPGKERELVADITWSGGSTYYADSVKGRFTISRDNAKNTVYLQMNSLKPEDTAVYYCAADDGSQYYFDSPHEYDYWGQGTQVTVSS
  polyreactivity (PSR sort gate): low polyreactivity

## QVQLVESGGGLVQAGGSLRLSCAASGGIFDTYAMGWYRQAPGKERELVAAISSTGGSTYYADSVKGRFTISRDNAKNTVYLQMNSLKPEDTAVYYCNAVLARFWRYRRWEYDYWGQGTQVTLSS
  polyreactivity (PSR sort gate): high polyreactivity

## QVQLVESGGGLVQAGGSLRLSCAASGGIFDYYAMGWYRQAPGKERELVAAISSSGGSTYYADSVKGRFTISRDNAKNTVYLQMNSLKPEDTAVYYCNADRRRRFGYWGQGTQVTVSS
  polyreactivity (PSR sort gate): high polyreactivity

## QVQLVESGGGLVQAGGSLRLSCAASGGIFFINAMGWYRQAPGKERELVAAISISDGSTYYADSVKGRFTISRDNAKNTVYLQMNSLKPEDTAVYYCAAEGFDWDSPEMEYWGQGTQVTVSS
  polyreactivity (PSR sort gate): low polyreactivity

## QVQLVESGGGLVQAGGSLRLSCAASGGIFGGYAMGWYRQAPGKEGELVAVITSGGSTYYADSVKGRFTISRDNAKNTVYLQMNSLKPEDTAVYYCAADGNSYSYSTYDYWGQGTQVTLSS
  polyreactivity (PSR sort gate): low polyreactivity

## QVQLVESGGGLVQAGGSLRLSCAASGGIFGTNDLGWSRQAPGKERELVAAITSDSGSTYYADSVKGRFTISRDNAKNTVYLQMTSLKPEDTAVYYCAAEDGPWFYRYGYWGQGTQVTVSS
  polyreactivity (PSR sort gate): low polyreactivity

## QVQLVESGGGLVQAGGSLRLSCAASGGIFGTYAMGWYRQAPGKEREFVAAITSGDSTYYADSVKGRFTISRDNAKNTVYLQMNSLKPEDTAVYYCAVGSTDRVSAQGSYFTYDYWGQGTQVTVSS
  polyreactivity (PSR sort gate): low polyreactivity

## QVQLVESGGGLVQAGGSLRLSCAASGGIFGTYTMGGYRQSPGKEREFVAAIRSSSGRTYYADSVKGRFTISRDNAKNTVYLQMNSLKPEVTAVYYCNAKYYGYRVGKYYPFGYWGQGTQVTVSS
  polyreactivity (PSR sort gate): high polyreactivity

## QVQLVESGGGLVQAGGSLRLSCAASGGIFGYNAMGWYRQAPGKERELVAAISRGTTTNYADSVKGRFTISRDNAKNTVYLQMNSLKPEDTAVYYCAADQPSKRYYYWGQGTQVTVSS
  polyreactivity (PSR sort gate): low polyreactivity

## QVQLVESGGGLVQAGGSLRLSCAASGGIFGYYAMGWYRQAPGKERELVAAISYSGGSTYADSVKGRFTISRDNAKNTVYLQMNSLKPEDTAVFYCAARVSSVTRSGFGYWGQGTQVTVSS
  polyreactivity (PSR sort gate): high polyreactivity

## QVQLVESGGGLVQAGGSLRLSCAASGGIFISYAMGWYRQAPGKERELVAAITSSGGSTYYADSVKGRFTISRDNAKNTVYLQMNSLKPEVTAVYYCNTDRVPVKVSPLYESWGQGTQVTVSS
  polyreactivity (PSR sort gate): low polyreactivity

## QVQLVESGGGLVQAGGSLRLSCAASGGIFKYYAMGWSRQAPGTERELVAAITSGGNTNYAESVKGRFTISRDNAKNTVYLQMNSQKPEDTAVYYCSARSISRRTWQYNYWGQGTQVTVSS
  polyreactivity (PSR sort gate): high polyreactivity

## QVQLVESGGGLVQAGGSLRLSCAASGGIFLKYAMAWYRQAPGKERELVASINTGVRTYYADSVKGRFTISRDNAKNTVYLQMNSLKPEDTAVYYCYADGGGPRKYTRTRGHWGQGTQVTVSS
  polyreactivity (PSR sort gate): low polyreactivity

## QVQLVESGGGLVQAGGSLRLSCAASGGIFLRYSMGWYRQAPGKERELVAAITANGGSTYYADSVKGRFTISRDNAKNTVYLQMISMKPEDTAVYYCNADSFPALNKRGYDYWGQVTQVTVSS
  polyreactivity (PSR sort gate): low polyreactivity

## QVQLVESGGGLVQAGGSLRLSCAASGGIFNYYAMGWYRQAPGKERELVAAISASGGSTYYADSVKGRFTISRDNAKNTVYLQMNSLKPEDTAVYYCAAGLPYGYGYDYWGQGTQVTVSS
  polyreactivity (PSR sort gate): low polyreactivity

## QVQLVESGGGLVQAGGSLRLSCAASGGIFPAYAMGWYRQAPGKERELVAAITSSGASTYADSVKGRFTISRDNAKNTVYLQMNSLKPEDTAVYYCNADDTTVILEMDYWGQGTQVTVSS
  polyreactivity (PSR sort gate): low polyreactivity

## QVQLVESGGGLVQAGGSLRLSCAASGGIFRGNAMGWYRQAPGKERELVAAISSSGGSTYYADSVKVRFTISRDNSKYTVYLEMYSLKPEDTAVYYCAAYAGSFYYWGQGTQVTVSS
  polyreactivity (PSR sort gate): high polyreactivity

## QVQLVESGGGLVQAGGSLRLSCAASGGIFRSYAMGWYRQAPGKERELVAAINYSGGSTYYADSVKGRFTISRDNAKNSVYLQMNSLKPEDTAVYYCASDGYIRQYVTYYYWGQGTQVTVSS
  polyreactivity (PSR sort gate): low polyreactivity

## QVQLVESGGGLVQAGGSLRLSCAASGGIFSWYDMGWYRQAPGKEREFVATITYSGGSTYYADSVKGRFTISRDNAKNTVYLQMNSLKPEDTAVYYCAAARYWYRRFDYWGQGTQVTVSS
  polyreactivity (PSR sort gate): high polyreactivity

## QVQLVESGGGLVQAGGSLRLSCAASGGIFSYNAMGWYIQAPGKERELVATISYSGGSTFYADSVKGRFTISRHNAKNTVYFQMNSLKPEDTAVYYCARPSYTSGYQSYDYWGQGTQVTVSS
  polyreactivity (PSR sort gate): low polyreactivity

## QVQLVESGGGLVQAGGSLRLSCAASGGIFTGYAMGWYRQAPGKERELVAAISSGGTTYYADSVKGRFTISRDNAKITVHLQMNSLKPEDTAVYYCAAGFYLRAVWMDYWGQGTQVTVSS
  polyreactivity (PSR sort gate): high polyreactivity
